According to PMC3125165:

Target: Escherichia coli FtsZ (Escherichia coli) (UniProt P0A9A6)

Pi released by GTP hydrolysis (MESG/PNP phosphate assay), endpoint as percent of the theoretical maximum, pH 6.0, 0.2 mM GTP, 11 uM FtsZ: 90%
Pi released by GTP hydrolysis (MESG/PNP phosphate assay), endpoint as percent of the theoretical maximum, pH 6.5, 0.2 mM GTP, 11 uM FtsZ: 96%
Pi released by GTP hydrolysis (MESG/PNP phosphate assay), endpoint as percent of the theoretical maximum, pH 7.0, 0.2 mM GTP, 11 uM FtsZ: 87%
Substance: Escherichia coli FtsZ (from UniProt P0A9A6 1-383) (natural protein)
